Laboratory results as given in the supplement of paper PMC5998384.

How the values were obtained:
HeLa Kyoto [1] = experiment: solubility in G1/S (NP-40 vs SDS abundance) (log2 ratio); higher = more soluble; settings: cell cycle stage: G1/S
HeLa Kyoto [2] = experiment: melting temperature (median over replicates), in situ; higher = more thermally stable
HeLa Kyoto [3] = experiment: solubility change mitosis vs G1/S (difference of NP-40 vs SDS log2 ratios) (log2 ratio difference); higher = more soluble in mitosis
HeLa Kyoto [4] = experiment: thermal stability score vs G1/S (z-score of summed log2 fold changes over temperatures); higher = more thermally stable than in G1/S
[5] = cell cycle stage: early G1 (4.5 h after nocodazole release)
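Wherever melting temperature (median over replicates), in situ is given: HeLa Kyoto cells synchronized by double thymidine or nocodazole block, proteins quantified by TMT10plex mass spectrometry, three independent biological replicates.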
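Wherever solubility change mitosis vs G1/S (difference of NP-40 vs SDS log2 ratios) is given: synchronized HeLa Kyoto cells (double thymidine block for G1/S, nocodazole release for mitosis), protein amounts in NP-40 versus SDS lysates quantified by mass spectrometry, three biological replicates.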
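Wherever solubility in G1/S (NP-40 vs SDS abundance) is given: HeLa Kyoto cells arrested at G1/S by double thymidine block, proteins quantified by TMT10plex mass spectrometry in mild NP-40 versus SDS extracts, three biological replicates.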
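Wherever thermal stability score vs G1/S (z-score of summed log2 fold changes over temperatures) is given: synchronized HeLa Kyoto cells, proteins quantified by TMT10plex mass spectrometry, three biological replicates, mitosis taken 0.5 h after nocodazole release, G1/S directly after double thymidine block.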

Q: What does the source list for “MSTGDSFETRFEKMDNLLRDPKSEVNSDCLLDGLDALVYDLDFPALRKNKNIDNFLSRYKDTINKIRDLRMKAEDYEVVKVIGRGAFGEVQLVRHKSTRKVYAMKLLSKFEMIKRSDSAFFWEERDIMAFANSPWVVQLFYAFQDDRYLYMVMEYMPGGDLVNLMSNYDVPEKWARFYTAEVVLALDAIHSMGFIHRDVKPDNMLLDKSGHLKLADFGTCMKMNKEGMVRCDTAVGTPDYISPEVLKSQGGDGYYGRECDWWSVGVFLYEMLVGDTPFYADSLVGTYSKIMNHKNSLTFPDDNDISKEAKNLICAFLTDREVRLGRNGVEEIKRHLFFKNDQWAWETLRDTVAPVVPDLSSDIDTSNFDDLEEDKGEEETFPIPKAFVGNQLPFVGFTYYSNRRYLSSANPNDNRTSSNADKSLQESLQKTIYKLEEQLHNEMQLKDEMEQKCRTSNIKLDKIMKELDEEGNQRRNLESTVSQIEKEKMLLQHRINEYQRKAEQENEKRRNVENEVSTLKDQLEDLKKVSQNSQLANEKLSQLQKQLEEANDLLRTESDTAVRLRKSHTEMSKSISQLESLNRELQERNRILENSKSQTDKDYYQLQAILEAERRDRGHDSEMIGDLQARITSLQEEVKHLKHNLEKVEGERKEAQDMLNHSEKEKNNLEIDLNYKLKSLQQRLEQEVNEHKVTKARLTDKHQSIEEAKSVAMCEMEKKLKEEREAREKAENRVVQIEKQCSMLDVDLKQSQQKLEHLTGNKERMEDEVKNLTLQLEQESNKRLLLQNELKTQAFEADNLKGLEKQMKQEINTLLEAKRLLEFELAQLTKQYRGNEGQMRELQDQLEAEQYFSTLYKTQVKELKEEIEEKNRENLKKIQELQNEKETLATQLDLAETKAESEQLARGLLEEQYFELTQESKKAASRNRQEITDKDHTVSRLEEANSMLTKDIEILRRENEELTEKMKKAEEEYKLEKEEEISNLKAAFEKNINTERTLKTQAVNKLAEIMNRKDFKIDRKKANTQDLRKKEKENRKLQLELNQEREKFNQMVVKHQKELNDMQAQLVEECAHRNELQMQLASKESDIEQLRAKLLDLSDSTSVASFPSADETDGNLPESRIEGWLSVPNRGNIKRYGWKKQYVVVSSKKILFYNDEQDKEQSNPSMVLDIDKLFHVRPVTQGDVYRAETEEIPKIFQILYANEGECRKDVEMEPVQQAEKTNFQNHKGHEFIPTLYHFPANCDACAKPLWHVFKPPPALECRRCHVKCHRDHLDKKEDLICPCKVSYDVTSARDMLLLACSQDEQKKWVTHLVKKIPKNPPSGFVRASPRTLSTRSTANQSFRKVVKNTSGKTS [ROCK1]”?
A: solubility in G1/S (log2) (HeLa Kyoto [1]): -0.0278; melting temperature (HeLa Kyoto [2]; cell cycle stage: G1/S): 50.4 °C; melting temperature (HeLa Kyoto [2]; cell cycle stage: mitosis): 50.2 °C; solubility change mitosis (log2) (HeLa Kyoto [3]): -0.138; thermal stability score (HeLa Kyoto [4]; [5]): -0.147; thermal stability score (HeLa Kyoto [4]; cell cycle stage: mitosis): -0.118

Q: For “MLSLDFLDDVRRMNKRQLYYQVLNFGMIVSSALMIWKGLMVITGSESPIVVVLSGSMEPAFHRGDLLFLTNRVEDPIRVGEIVVFRIEGREIPIVHRVLKIHEKQNGHIKFLTKGDNNAVDDRGLYKQGQHWLEKKDVVGRARGFVPYIGIVTILMNDYPKFKYAVLFLLGLFVLVHRE [SEC11A]”, which “solubility in G1/S (log2)” value (HeLa Kyoto [1]) is on record?
A: -0.21

Q: And the melting temperature (HeLa Kyoto [2]; cell cycle stage: G1/S)?
A: 53.2 °C

Q: What about the melting temperature (HeLa Kyoto [2]; cell cycle stage: mitosis) of the same sequence?
A: 52.3 °C

Q: What about the “solubility change mitosis (log2)” value (HeLa Kyoto [3]) of the same sequence?
A: -0.117

Q: And the thermal stability score (HeLa Kyoto [4]; [5])?
A: 9.24

Q: And the thermal stability score (HeLa Kyoto [4]; cell cycle stage: mitosis)?
A: 7.47

Q: How did the “solubility in G1/S (log2)” value (HeLa Kyoto [1]) turn out when “MAPRRVRSFLRGLPALLLLLLFLGPWPAASHGGKYSREKNQPKPSPKRESGEEFRMEKLNQLWEKAQRLHLPPVRLAELHADLKIQERDELAWKKLKLDGLDEDGEKEARLIRNLNVILAKYGLDGKKDARQVTSNSLSGTQEDGLDDPRLEKLWHKAKTSGKFSGEELDKLWREFLHHKEKVHEYNVLLETLSRTEEIHENVISPSDLSDIKGSVLHSRHTELKEKLRSINQGLDRLRRVSHQGYSTEAEFEEPRVIDLWDLAQSANLTDKELEAFREELKHFEAKIEKHNHYQKQLEIAHEKLRHAESVGDGERVSRSREKHALLEGRTKELGYTVKKHLQDLSGRISRARHNEL [LRPAP1]” was run?
A: 0.724

Q: And the melting temperature (HeLa Kyoto [2]; cell cycle stage: G1/S)?
A: 55.3 °C

Q: And the melting temperature (HeLa Kyoto [2]; cell cycle stage: mitosis)?
A: 54.1 °C

Q: And the “solubility change mitosis (log2)” value (HeLa Kyoto [3])?
A: -0.0876

Q: What about the thermal stability score (HeLa Kyoto [4]; [5]) of the same sequence?
A: 2.72

Q: And the thermal stability score (HeLa Kyoto [4]; cell cycle stage: mitosis)?
A: -0.375

Q: “MVSHGSSPSLLEALSSDFLACKICLEQLRAPKTLPCLHTYCQDCLAQLADGGRVRCPECRETVPVPPEGVASFKTNFFVNGLLDLVKARACGDLRAGKPACALCPLVGGTSTGGPATARCLDCADDLCQACADGHRCTRQTHTHRVVDLVGYRAGWYDEEARERQAAQCPQHPGEALRFLCQPCSQLLCRECRLDPHLDHPCLPLAEAVRARRPGLEGLLAGVDNNLVELEAARRVEKEALARLREQAARVGTQVEEAAEGVLRALLAQKQEVLGQLRAHVEAAEEAARERLAELEGREQVARAAAAFARRVLSLGREAEILSLEGAIAQRLRQLQGCPWAPGPAPCLLPQLELHPGLLDKNCHLLRLSFEEQQPQKDGGKDGAGTQGGEESQSRREDEPKTERQGGVQPQAGDGAQTPKEEKAQTTREEGAQTLEEDRAQTPHEDGGPQPHRGGRPNKKKKFKGRLKSISREPSPALGPNLDGSGLLPRPIFYCSFPTRMPGDKRSPRITGLCPFGPREILVADEQNRALKRFSLNGDYKGTVPVPEGCSPCSVAALQSAVAFSASARLYLINPNGEVQWRRALSLSQASHAVAALPSGDRVAVSVAGHVEVYNMEGSLATRFIPGGKASRGLRALVFLTTSPQGHFVGSDWQQNSVVICDGLGQVVGEYKGPGLHGCQPGSVSVDKKGYIFLTLREVNKVVILDPKGSLLGDFLTAYHGLEKPRVTTMVDGRYLVVSLSNGTIHIFRVRSPDS [TRIM56]” was tested. Which “solubility in G1/S (log2)” value (HeLa Kyoto [1]) did it give?
A: -0.379

Q: What about the melting temperature (HeLa Kyoto [2]; cell cycle stage: G1/S) of the same sequence?
A: 52.4 °C

Q: What about the melting temperature (HeLa Kyoto [2]; cell cycle stage: mitosis) of the same sequence?
A: 50.7 °C

Q: And the “solubility change mitosis (log2)” value (HeLa Kyoto [3])?
A: 0.0648

Q: What about the thermal stability score (HeLa Kyoto [4]; [5]) of the same sequence?
A: 0.0282

Q: And the thermal stability score (HeLa Kyoto [4]; cell cycle stage: mitosis)?
A: 0.527

Q: What does the source list for “MSGSMATAEASGSDGKGQEVETSVTYYRLEEVAKRNSLKELWLVIHGRVYDVTRFLNEHPGGEEVLLEQAGVDASESFEDVGHSSDAREMLKQYYIGDIHPSDLKPESGSKDPSKNDTCKSCWAYWILPIIGAVLLGFLYRYYTSESKSS [CYB5B]”?
A: solubility in G1/S (log2) (HeLa Kyoto [1]): -0.0447; melting temperature (HeLa Kyoto [2]; cell cycle stage: G1/S): 57.2 °C; solubility change mitosis (log2) (HeLa Kyoto [3]): 0.0898; thermal stability score (HeLa Kyoto [4]; [5]): 1.14; thermal stability score (HeLa Kyoto [4]; cell cycle stage: mitosis): -0.285

Q: “MAAPRVFPLSCAVQQYAWGKMGSNSEVARLLASSDPLAQIAEDKPYAELWMGTHPRGDAKILDNRISQKTLSQWIAENQDSLGSKVKDTFNGNLPFLFKVLSVETPLSIQAHPNKELAEKLHLQAPQHYPDANHKPEMAIALTPFQGLCGFRPVEEIVTFLKKVPEFQFLIGDEAATHLKQTMSHDSQAVASSLQSCFSHLMKSEKKVVVEQLNLLVKRISQQAAAGNNMEDIFGELLLQLHQQYPGDIGCFAIYFLNLLTLKPGEAMFLEANVPHAYLKGDCVECMACSDNTVRAGLTPKFIDVPTLCEMLSYTPSSSKDRLFLPTRSQEDPYLSIYDPPVPDFTIMKTEVPGSVTEYKVLALDSASILLMVQGTVIASTPTTQTPIPLQRGGVLFIGANESVSLKLTEPKDLLIFRACCLL [MPI]” was tested. Which “solubility in G1/S (log2)” value (HeLa Kyoto [1]) did it give?
A: 0.389

Q: And the melting temperature (HeLa Kyoto [2]; cell cycle stage: G1/S)?
A: 50.7 °C

Q: What about the melting temperature (HeLa Kyoto [2]; cell cycle stage: mitosis) of the same sequence?
A: 50.4 °C

Q: What about the “solubility change mitosis (log2)” value (HeLa Kyoto [3]) of the same sequence?
A: -0.154

Q: And the thermal stability score (HeLa Kyoto [4]; [5])?
A: -0.708

Q: And the thermal stability score (HeLa Kyoto [4]; cell cycle stage: mitosis)?
A: -0.365
